B1: Tripartite motif-containing protein 44, residues 174 to 218; numbered along this chain, Q96DX7 (parent)
chain: VAKRKCPDHGLDLSTYCQEDRQLICVLCPVIGAHQGHQLSTLDEA

Variants of: B1
Assay: abundance fitness (aPCA) (normalised: wild type 0, dead -1); higher = more abundant; growth selection in yeast, the domain comes from the species named
Conditions: Homo sapiens

Abundance fitness, by site and new letter:
L13: T -0.079; H -0.339; Q -0.009; F -0.186; G -0.282; I -0.154; E -0.123; N -0.296; Y -0.147; W -0.175; M -0.031; K -0.204; V -0.082; C -0.034; S -0.166; R -0.1; P -0.276
Q22: G -0.109; F -0.281; M 0.004; V -0.039; S 0.007; A -0.019; T 0.06; L -0.074; P -0.726; I -0.094; C 0.042; H -0.044; K 0.027; W -0.552; D -0.014; R -0.001; Y 0.02; E 0.072
L23: I -0.161; M -0.004; C -0.116; S 0.014; V -0.048; E 0.066; Q 0.058; F -0.163; W 0.001; G -0.001; N -0.09; K -0.041; D 0.081; T -0.001
S14: A -0.001; I 0.023; D 0.006; R -0.098; E 0.033; P -0.688; H -0.014; W -0.155; K 0.014; T 0.01; V 0.011; M -0.049; N 0.094; F -0.074; Q -0.001; L -0.031; G 0.019
D12: Q -0.116; F -0.15; M -0.048; T -0.071; W -0.141; C -0.366; N -0.072; A -0.117; H 0.017; I -0.016; E 0.003; K -0.082; G -0.098; R -0.214; Y -0.132; P -0.033; S -0.113; L -0.166
C17: D -0.631; H -0.818; N -0.701; F -0.334; W -0.931; V -0.753; Q -0.633; I -0.759; S -0.562; M -0.779; E -0.546; L -0.982; G -0.557; T -0.705; P -0.751; R -0.484; K -0.657; A -0.641; Y -0.767
Y16: L -0.054; M -0.011; I 0.127; H -0.053; Q -0.029; F -0.069; W -0.039; E -0.033; G -0.373; R -0.043; V -0.052; T 0.029; N -0.167; D -0.276; K -0.059; S -0.16; A -0.266; P -0.379; C -0.132
V26: D 0.046; K 0.113; S 0.084; A 0.042; M -0.011; T 0.054; P 0.029; G 0.002; Y -0.041; W -0.065; C 0.002; Q 0.074; F -0.052; N 0.062; E 0.066; L -0.025; R 0.082
C25: Y -0.601; P -0.649; I -1.11; Q -0.65; E -0.717; G -0.774; R -0.728; L -1.25; H -0.798; D -0.662; F -0.926; M -0.968; V -1.08; K -0.634; W -1.02
R21: S 0.068; Y 0.001; V -0.205; K 0.063; A 0; G 0.025; H 0.029; N 0.047; D 0.071; P -0.691; E 0.043; C 0.009; T -0.037; M -0.016; W -0.24
C28: M -1.07; I -1.09; W -1.14; F -0.791; Y -0.919; L -1.12; V -1.06; K -0.744; N -0.759; D -0.557; A -0.897; T -0.982; R -1; H -0.994; P -0.882; E -0.704
L11: G -0.169; W -0.214; Y -0.031; C -0.009; D -0.198; V -0.183; F -0.083; P -0.778; M -0.05; Q -0.024; H 0.033; R 0; T -0.147; K 0.016; E 0.005; S -0.189
T15: W -0.2; V -0.198; I -0.137; F -0.382; Q 0.039; A -0.085; R -0.054; P -0.544; H -0.033; C -0.153; K 0.048; N 0.014; G -0.101; Y 0.001; M -0.106; D -0.006; S -0.03; L -0.196
H9: K -0.995; V -0.986; I -0.891; R -0.975; Y -0.791; P -1.15; G -0.91; S -1.02; W -1.03; T -0.919; Q -0.964; M -0.901; N -0.838
G10: R -0.147; C -0.143; P -0.776; F -0.206; W -0.311; T -0.347; L -0.116; N 0.118; K -0.106; V -0.519; H 0.002; I -0.445; E -0.074; Q -0.027; S -0.064; Y -0.125; M -0.078
L27: S -0.024; M 0.039; G -0.25; V -0.151; F -0.137; P -0.624; T -0.212; E 0.063; N 0.055; C -0.283; I -0.119; Y -0.059; Q 0.127; H -0.069; R 0.024; W -0.216
E19: P -0.198; M -0.108; V -0.06; F -0.097; S -0.048; W -0.153; T -0.01; I -0.063; A -0.045; L -0.081; Q -0.062; R -0.098; H -0.032; N -0.033; G -0.093; C -0.063; D 0.045; Y -0.082
Q18: T -0.06; Y 0.08; M -0.01; W -0.189; R -0.043; P -0.038; L -0.061; S -0.015; G -0.111; C -0.041; E 0.008; H 0.035; N -0.01; K 0.037; V -0.086; A -0.021; I -0.058; D 0.009; F -0.109
I24: S -0.31; F -0.173; Y -0.262; D -0.427; H -0.312; A -0.121; L -0.068; K -0.138; M -0.041; T -0.052; E -0.457; N -0.407; C -0.043; V -0.051; R -0.171
D20: K -0.3; M -0.685; S -0.138; H -0.141; A -0.585; Y -0.57; C -0.045; P -0.896; Q -0.377; R -0.072; V -0.642; N -0.419; T -0.217; L -0.656; G -0.487; E -0.033; F -0.914

Source: the Human Domainome abundance scans (Beltran et al. 2025)
